Results as given in patent US20210269836A1 (JOHN INNES CENTRE, published 2021).

T1: LAMT-YFPC (loganic acid methyltransferase fused to the C-terminal split YFP fragment) (UniProt B2KPR3 1-371)
T1 construct: Control construct of the BiFC assay; also called LAMT-YC; not shown: C-terminal split YFP fragment (YFPC)
T1 sequence (looked up): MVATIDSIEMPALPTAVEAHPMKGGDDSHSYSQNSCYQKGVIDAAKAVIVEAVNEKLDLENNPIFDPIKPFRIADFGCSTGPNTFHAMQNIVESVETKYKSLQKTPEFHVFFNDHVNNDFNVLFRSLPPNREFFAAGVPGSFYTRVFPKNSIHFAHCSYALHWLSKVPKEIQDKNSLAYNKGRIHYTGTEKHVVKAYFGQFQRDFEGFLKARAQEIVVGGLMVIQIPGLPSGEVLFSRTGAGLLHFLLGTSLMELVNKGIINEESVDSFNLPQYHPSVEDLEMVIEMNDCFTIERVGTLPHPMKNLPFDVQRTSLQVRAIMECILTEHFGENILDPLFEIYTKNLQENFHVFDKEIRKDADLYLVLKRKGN

T2: LAMT-YFPN (loganic acid methyltransferase fused to the N-terminal split YFP fragment) (UniProt B2KPR3 1-371)
T2 construct: Control construct of the BiFC assay; also called LAMT-YN; not shown: N-terminal split YFP fragment (YFPN)
T2 sequence (looked up): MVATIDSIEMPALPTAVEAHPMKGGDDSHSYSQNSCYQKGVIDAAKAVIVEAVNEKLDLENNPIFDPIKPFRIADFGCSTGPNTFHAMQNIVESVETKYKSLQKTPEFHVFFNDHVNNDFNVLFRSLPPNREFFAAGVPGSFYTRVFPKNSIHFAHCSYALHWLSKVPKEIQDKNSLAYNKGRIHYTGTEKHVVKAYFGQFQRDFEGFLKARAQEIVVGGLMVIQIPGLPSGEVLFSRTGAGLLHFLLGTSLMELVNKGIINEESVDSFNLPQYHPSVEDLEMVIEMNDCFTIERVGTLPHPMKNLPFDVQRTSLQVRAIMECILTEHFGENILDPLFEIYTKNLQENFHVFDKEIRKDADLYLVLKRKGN


What was measured:
[1] = target: T1, LAMT-YFPC (loganic acid …); test: BiFC in transiently transformed C. roseus cells
Procedure: (§1) Interaction of DPAS with TS and CS. DPAS/CS and DPAS/TS interactions were analyzed by BiFC in C. roseus cells transiently transformed by distinct combinations of plasmids encoding fusions with the two split YFP fragments, YFPN (YN) and YFPC (YC) as indicated on each pictures of the first row (A, D, G, J, M). Identification of transiently transformed cells was achieved by co-transformation with the nucleus (nuc)-CFP marker(B, E, H, K, N). […] Interactions of DPAS and TS with loganic acid methyltransferase (LAMT)-YN and LAMT-YC were also studied to evaluate the specificity of DPAS/TS interactions. Cell morphology is observed with differential interference contrast (DIC) (C, F, I, L, O). Scale bars, 10 μm.
(§2) Transient transformation of C. roseus cells by particle bombardment and fluorescence imaging were performed. Briefly, C. roseus plated cells were bombarded with DNA-coated gold particles (1 μm) and 1,100 psi rupture disc at a stopping-screen-to-target distance of 6 cm, using the Bio-Rad PDS1000/He system. Cells were cultivated for 16 h to 38 h (DPAS, CS and TS) or up to 96 h for PAS before being harvested and observed. The subcellular localization was determined using an Olympus BX-51 epifluorescence microscope equipped with an Olympus DP-71 digital camera and a combination of YFP and CFP filters. […]

[2] = target: T2, LAMT-YFPN (loganic acid …); test: BiFC in transiently transformed C. roseus cells
Procedure: as §1, §2

binding result [1] | binding result [2] | Binder
no binding |  | TS-YFPN (Tabersonine Synthase fused at its C-terminus to the N-terminal split YFP fragment) (enzyme, BiFC fusion expressed transiently inside C. roseus cells; also called TS-YN; not shown: N-terminal split YFP fragment (YFPN) from plasmid pSCA-SPYNE173) MGSSDETIFDLPPYIKVFKDGRVERLHSSPYVPPSLNDPETGGVSWKDVPISSVVSARIYLPKINNHDEKLPIIVYFHGAGFCLESAFKSFFHTYVKHFVAEAKAIAVSVEFRLAPENHLPAAYEDCWEALQWVASHVGLDISSLKTCIDKDPWIINYADFDRLYLWGDSTGANIVHNTLIRSGKEKLNGGKVKILGAILYYPYFLIRTSSKQSDYMENEYRSYWKLAYPDAPGGNDNPMINPTAENAPDLAGYGCSRLLISMVADEARDITLLYIDALEKSGWKGELDVADFDKQYFELFEMETEVAKNMLRRLASFIK
 | no binding | YFPC-DPAS (dehydroprecondylocarpine acetate synthase fused at its N-terminus to the C-terminal split YFP fragment) (enzyme, BiFC fusion expressed transiently inside C. roseus cells; also called YC-DPAS; dihydroprecondylocarpine acetate synthase; not shown: C-terminal split YFP fragment (YFPC) from plasmid pSCA-SPYCE (MR)) MAGKSAEEEHPIKAYGWAVKDRTTGILSPFKFSRRATGDDDVRIKILYCGICHTDLASIKNEYEFLSYPLVPGMEIVGIATEVGKDVTKVKVGEKVALSAYLGCCGKCYSCVNELENYCPEVIIGYGTPYHDGTICYGGLSNETVANQSFVLRFPERLSPAGGAPLLSAGITSFSAMRNSGIDKPGLHVGVVGLGGLGHLAVKFAKAFGLKVTVISTTSKKDDAINGLGADGFLLSRDDEQMKAAIGTLDAIIDTLAVVHPIAPLLDLLRSQGKFLLLGAPSQSLELPPIPLLSGGKSIIGSAAGNVKQTQEMLDFAAEHDITANVEIIPIEYINTAMERLDKGDVRYRFVVDIENTLTPPSEL
